Ends that are not written are not given here.
Experiments:
Ki67 protein = assay: Ki67 proliferation marker immunolabelling on experimentally aged keratinocytes in culture; format: cell-based, human; details: 1% peptide in medium; keratinocytes aged 20 days in culture; immunofluorescence
Experimental: A study of the activator effect of peptide SEQ ID No. 2 was carried out by evaluating the expression of the cellular proliferation marker protein on experimentally aged keratinocytes in culture. The analysis is carried out after 20 days of culture.
The keratinocytes are cultured for 20 days in a CO2 incubator at 37° C. under humidified atmosphere. The cells are treated directly by adding 1% peptide directly into the medium. Cells that are not treated but aged in the same manner are used as control cells. For experimental requirements, the cells are seeded in 8-well labteck, maintained in culture and treated in the same support until the day of labeling. On the day of immunolabelling, the cells are rinsed by using phosphate buffer and then fixed with cold methanol before labeling.
Immunolabelling is carried out by a rabbit anti-Ki67 antibody (Abcam) diluted to 1/1000th and a secondary antibody to 1/1000th coupled with an Alexa fluor monkey anti-rabbit fluorochrome (Molecular probes).
The slides are then mounted in a suitable medium and observed by epifluorescence microscope (Nikon Eclipse E E600).

beta-galactosidase = details: 1% peptide, 3 times per week; keratinocytes aged 20 days in culture; X-gal staining
Experimental: These cells are maintained in culture in a special keratinocyte-SFM medium (Invitrogen) at 37° C. under a humidified atmosphere of 5% CO2. Aged NHK cells are obtained by performing a series of repeated sub-cultures. Briefly the cells are seeded in 75 cm^2 flasks, at low density and cultured from 5 to 10 days between 2 passages. […] The cells are then maintained under these conditions for 45 days.
A study of the antiaging effect of the active principle was carried out by evaluating the expression of the beta-galactosidase protein on experimentally aged keratinocytes in culture.
Keratinocytes experimentally aged in 8-well labteck are cultured and maintained for 20 days in the presence or not of 1% peptide of SEQ ID No. 6. The treatment is carried out 3 times per week by direct addition into the medium.
Untreated cells are maintained in culture for the same experiment time and will be used as controls. On the day of labeling, the cells are rinsed and fixed in a 2% glutaraldehyde-2% formaldehyde mixture for 3 minutes. The cells are then rinsed and 300 μl of 5-bromo-4-chloro-3 indolyl b-D-galactosidase, commonly called X-gal (substrate of beta-galactosidase), is applied. Incubation is carried out for 24 hours in the CO2 incubator, and then the cells are rinsed and the labteck is quickly mounted in a suitable medium. Observation is carried out by transmission microscope. […]

20S proteasome = target: T1, 20S proteasome (Homo sapiens, UniProt P28072+P28074+Q99436); assay: Enzymatic activity of 20S proteasome on aged keratinocytes maintained in culture (AMC fluorogenic substrates); format: cell-based; details: 1% peptide in medium, renewed 3 times per week, 15 days culture
T1 construct: endogenous in cells; host or cells: experimentally aged normal human keratinocytes (NHK); crude cell lysate
Experimental: Experimentally aged keratinocytes maintained in culture for 15 days are treated with 1% of peptide SEQ ID No. 6. The enzymatic activities of 20S proteasome are then studied. In fact, 20S proteasome is the subunit responsible for enzymatic hydrolysis. Three enzymatic activities may be studied: Trypsin-like, chymotrypsin-like and peptidylglutamyl-peptide hydrolase (PGPH) activity. We are proposing to study these activities by a specific enzymatic assay of each activity.
The aged keratinocytes are maintained in culture for 15 days. The cell treatment is carried out by adding a solution at 1% of peptide SEQ ID No. 6 directly into the medium, renewed 3 times per week for the time of the experiment. The assay of each activity was carried out by using specific substrates labeled by a fluorescent compound 7-amido-4-methylcoumarin (AMC). After cleavage, the AMC excitation wavelength is 350 nm, the fluorescence is read at 440 nm. The fluorescence intensity is proportional to the quantity of fluorochrome obtained and consequently, this quantity is proportional to the quantity of hydrolyzed substrate.
The synthetic peptide Boc-Leu-Arg-Arg-AMC is specific for trypsin activity.
The synthetic peptide Suc-Leu-Leu-Val-Tyr-AMC (SEQ ID NO: 8) is specific for chymotrypsin activity.
The synthetic peptide Z-Leu-Leu-Glu-AMC is specific for peptidylglutamyl-peptide hydrolase activity.
The cells are detached from the support in an extraction buffer. Afterwards, the cells are sonicated for 1 minute at 4° C., and then centrifuged at 15000 g for 30 minutes at 4° C. The protein assay is carried out by the BCA kit (Pierce). After incubation of the cellular lysate with the synthetic substrate specific for the activity studied, fluorescence is read with the Synergy spectrophotometer (BIOTEK, Vermont, USA) at 440 nm.

## Leu-Arg-Lys-Gly-Met-NH2 (LRKGM-NH2) [SEQ ID No. 2]
Ki67 protein
  Ki67 protein expression in aged and treated cells compared to untreated cells: increased the Ki67 protein

## Arg-Lys-Gly-NH2 [SEQ ID No. 6]
beta-galactosidase
  beta-galactosidase activity in treated cells compared to untreated cells: strongly reduced
20S proteasome; substrate Boc-Leu-Arg-Arg-AMC, p=0.033
  trypsin-like activity of 20S proteasome, increase: 155.3%
20S proteasome; substrate Suc-Leu-Leu-Val-Tyr-AMC, p=0.0477
  chymotrypsin-like activity of 20S proteasome, increase: 130%
20S proteasome; substrate Z-Leu-Leu-Glu-AMC, p=0.00053
  peptidylglutamyl-peptide hydrolase activity of 20S proteasome, increase: 144.6%
